Patent US10465177B2, “Maltooligosyl trehalose trehalohydrolase (MTHase) mutant and application thereof” (Jiangnan University, priority 2018, dated 2019)
Residue numbers refer to the chain shown, from its start. In names and notes the source's numbering stands.

Assays:
[1] = substrate: OC[C@H]1O[C@H](O[C@H]2[C@H](O)[C@@H](O)[C@@H](O[C@H]3[C@H](O)[C@@H](O)[C@@H](O[C@H]4[C@H](O)[C@@H](O)[C@@H](O[C@H]5[C@H](O)[C@@H](O)[C@@H](O[C@H]6[C@H](O)[C@@H](O)C(O)O[C@@H]6CO)O[C@@H]5CO)O[C@@H]4CO)O[C@@H]3CO)O[C@@H]2CO)[C@H](O)[C@@H](O)[C@@H]1O; assay: purified protein, by the assay type; settings: other: wild type enzyme, maltohexose substrate, 60° C.
[2] = substrate: OC[C@H]1O[C@H](O[C@H]2[C@H](O)[C@@H](O)[C@@H](O[C@H]3[C@H](O)[C@@H](O)[C@@H](O[C@H]4[C@H](O)[C@@H](O)[C@@H](O[C@H]5[C@H](O)[C@@H](O)[C@@H](O[C@H]6[C@H](O)[C@@H](O)C(O)O[C@@H]6CO)O[C@@H]5CO)O[C@@H]4CO)O[C@@H]3CO)O[C@@H]2CO)[C@H](O)[C@@H](O)[C@@H]1O; assay: purified protein, by the assay type; type: biochemical, Sulfolobus acidocaldarius; settings: other: mutant M140L/L202P/L218D/Y323G/F338S/I404T, maltohexose substrate, 60° C.

B1: maltooligosyl trehalose trehalohydrolase (MTHase) derived from Sulfolobus acidocaldarius, wild type (WT), SEQ ID NO.2 (Sulfolobus acidocaldarius) (protein)
chain: MFSFGGNIEKNKGIFKLWAPYVNSVKLKLSKKLIPMEKNDEGFFEVEIDDIEENLTYSYIIEDKREIPDPASRYQPLGVHDKSQLIRTDYQILDLGKVKIEDLIIYELHVGTFSQEGNFKGVIEKLDYLKDLGITGIELMPVAQFPGNRDWGYDGVFLYAVQNTYGGPWELAKLVNEAHKRGIAVILDVVYNHIGPEGNYLLGLGPYFSDRYKTPWGLTFNFDDRGCDQVRKFILENVEYWFKTFKIDGLRLDAVHAIFDNSPKHILQEIAEKAHQLGKFVIAESDLNDPKIVKDDCGYKIDAQWVDDFHHAVHAFITKEKDYYYQDFGRIEDIEKTFKDVFVYDGKYSRYRGRTHGAPVGDLPPRKFVVFIQNHDQVGNRGNGERLSILTDKTTYLMAATLYILSPYIPLIFMGEEYYETNPFFFFSDFSDPVLIKGVREGRLKENNQMIDPQSEEAFLKSKLSWKIDEEVLDYYKQLINIRKRYNNCKRVKEVRREGNCITLIMEKIGIIASFDDIVINSKITGNLLIGIGFPKKLKKDELIKVNRGVGVYQLE
Protein B1 has a Km [1] of 3.89 ± 0.34 mM.

B2: maltooligosyl trehalose trehalohydrolase (MTHase) derived from Sulfolobus acidocaldarius (parent SEQ ID NO.2), mutant M140L/L202P/L218D/Y323G/F338S/I404T … (protein)
chain: B1 chain with M140L, L202P, L218D, Y323G, F338S, I404T
notes: sextuple site-directed mutant of the 556-aa parent
B2 was tested, and the Km [2] was 3.4 ± 0.94 mM.
